What is called ΔTm is the change in melting temperature against a reference sample. Broadly, the Tm is the temperature at which the thermal transition is half complete. As a reminder, the Kd is the constant that tells how readily two partners part at equilibrium.

A short description of data set [1]: Differential scanning calorimetry of the avidin mutants. As to conditions: for Tm: DSC, 100 mM Na-phosphate buffer pH 7.4. It counts as physicochemical. How it is done:
In order to study the thermal stability of the purified avidin mutants, they were subjected to analysis by differential scanning calorimetry. A Nano II differential scanning calorimeter (Calorimetric Science Corporation, Provo, Utah) was used. […] The reference cell was filled with the same buffer that the sample proteins were dissolved in (100 mM Na-phosphate buffer pH 7.4). The thermograms were recorded as a function of temperature, between 25 and 130° C. at a temperature scan rate of 55.6° C./h. The baselines were subtracted and the transition midpoints (Tm) of the samples were calculated using proprietary software provided by the instrument manufacturer.
(In general: DSC measures the heat that a sample takes up or gives off during a temperature scan.)

A short description of data set [2]: IAsys optical biosensor, affinity of avidin and avidin mutants towards 2-iminobiotin. The data set is classed as binding. How it is done:
(§1) Reversibility of biotin binding was measured for avidin and the mutants with an IAsys optical biosensor (Laitinen, O. H. et al., FEBS Lett 461 (1999), 52-8). Protein samples were allowed to bind to a biotin-aminosilane cuvette in PBS containing 1 M NaCl. After the equilibrium was reached, biotin-containing buffer was added and the dissociation of the proteins was monitored. The affinities of the proteins towards 2-iminobiotin were determined with an IAsys optical biosensor (Marttila, A. T. et al. FEBS Lett 441 (1998), 313-7). Biotin-binding activity of the mutants Avd-ci and Avd-ccci after heat treatment was studied with a microtiter plate assay. Protein samples, 5 μg/ml concentration in PBS, were heated for various time periods at 99.9° C. and then chilled on ice. The samples were transferred to a Nunc Maxisorp-plate and incubated at 37° C. for 2 h. The wells were washed three times with PBS-Tween (0.05% v/v). After that the wells were blocked with PBS containing 1% BSA at 37° C. for 30 minutes and washed again with PBS-Tween. Next, biotinylated alkaline phosphatase (Sigma) in PBS, 1% BSA was added and incubated at 37° C. for one hour. Once again, the wells were washed with PBS-Tween and the PNPP substrate in DEA buffer (1 mg/ml) was applied to the wells. The absorbances at 405 nm were measured after incubation for 45 minutes.

For data set [3] the following is noted: cited from earlier work; for ΔTm: change in Tm upon biotin addition, previously published values; for DSC Tm (+biotin) / DSC Tm(−biotin): previously published (Nordlund 2003; Gonzalez 1999).
For data set [4] the following is noted: 2-iminobiotin surface; from Nordlund 2003; read-out: Kd detected from the equilibrium response data; cited from earlier work.
In data set [5] the test system is biotinylated alkaline phosphatase. In words: Microtiter plate assay, biotin-binding activity after heat treatment at 99.9° C. The data set is classed as physicochemical. Conditions: 99.9° C. for various time periods. As to the method:
as §1, with “After that the wells were blocked with PBS containing 1% BSA at 37° C. for 30 minutes and washed again with PBS-Tween. Next, biotinylated alkaline phosphatase (Sigma) in PBS, 1% BSA was added and incubated at 37° C. for one hour. Once again, the wells were washed with PBS-Tween and the PNPP substrate in DEA buffer (1 mg/ml) was applied to the wells.” left out
Biotin-binding activity of the proteins after heat treatment was studied with a microtiter plate assay (Nordlund, H. R., Laitinen, O. H., Uotila, S. T., Nyholm, T., Hytönen, V. P., Slotte, J. P. & Kulomaa, M. S. (2003) J. Biol. Chem. 278, 2479-2483). […] The absorbencies at 405 nm were measured after incubation for 45 minutes.

Data set [6] in a line: Microparticle analysis, BF523-biotin binding of protein-coated particles before and after 95° C. The data set is classed as physicochemical. As to conditions: 30 minutes at 95° C., BF523-biotin added after treatment (iv). How it is done:
Before the analysis, 3.22 μm microparticles with COOH-group/0.852 nm2 (Bangs laboratories, Fishers, Ind., USA) were covalently coated with biotin-binding proteins. Microparticles (1*108 pcs) were washed twice with H20 by sequential centrifuging (5000 g; 3 min) and aspiration, and resuspended in 200 μl PB buffer (50 mM NaH2PO4-HCl, pH 3.0). A solution of biotin binding protein (50 μl, 1 mg/ml or 3 mg/ml, 50 mM Na-acetate pH 4.0) was added while vortexing. The suspension was incubated for 1 h (500 rpm; 23° C.). Particles were washed with PB and with MES buffer (50 mM, pH 5.5) and suspended in MES buffer (200 μl). […] After the last wash particles were suspended in 100 μl volume and concentration of particles was determined with Multisizer 3 Coulter Counter (Beckman Coulter, Fullerton, Calif., USA). […]
Microparticles (5*106 pcs) were suspended in 900 μl of assay buffer and aliquoted in […] PCR-tubes (i-v; 180 μl/aliquot). […] The samples were measured with ArcDia TPX PlateReader (ArcDia Ltd.) (Soini, E., Meltola, N. J., Soini, A. E., Soukka, J., Soini, J. T. & Hanninen, P. E. (2000) Biochem. Soc. Trans. 28, 70-74). […]
The fluorescence emission efficiencies of the BF523-biotin conjugate (200 nM) was determined before and after the incubation (30 min) at 95° C. […]

[7] abbreviates: + biotin, difference in Tm compared to wt avidin + biotin.
Setting [8] is: + biotin (biotin:avidin molar ratio 3:1).
Where [9] appears, read: without biotin, difference in Tm compared to wt avidin.

Several values for one entry are separate records, joined by “and”; a condition that tells them apart may be missing. Equal values may be shown once. Read-outs that look alike come from different tables or passages of the source.

For the substance “Avd-cci: Avidin mutant D86C, I106C with four intermonomeric disulphide bridges (1-4 and 2-3)”, the ΔTm in data set [1] (setting [7]) is −0.7 °C; in data set [1] (setting [9]) it was −11.1 °C; in data set [3] it was 43.1 °C. The Tm in data set [1] (setting [8]) was 117.5 ± 0.1 °C; in data set [1] (without biotin), 74.4 ± 0.1 °C. Moreover, the Kd in data set [2] and in data set [4] was 94 nM in each case. The “DSC Tm (+biotin)” value in data set [3] was 117.5 ± 0.1 °C. Besides, the “DSC Tm(−biotin)” value in data set [3] was 74.4 ± 0.1 °C.

As for “Avd-ci: Avidin mutant I117C with two intermonomeric disulphide bridges (subunits 1-3 and 2-4)”, the ΔTm was 6.5 °C in data set [1] (setting [7]), 13.1 °C in data set [1] (setting [9]) and 26.1 °C in data set [3]. In addition, the figures for the Tm in data set [1] (setting [8]) and in data set [1] (without biotin) were 124.7 ± 0.5 °C and 98.6 ± 0.1 °C, respectively. In addition, the Kd was 85 nM in data set [2] and 190 nM in data set [4]. In addition, the “DSC Tm (+biotin)” value in data set [3] is 124.7 ± 0.5 °C. Also, the “DSC Tm(−biotin)” value in data set [3] was 98.6 °C and 98.6 ± 0.1 °C. Moreover, the “biotin-binding activity after heat treatment” value in data set [5] is given as “remained active, in the sense of binding biotin, longer than the wild-type avidin”. Moreover, the “original signal after heat treatment of coated particles” value in data set [6] was 35%.

As for “Avd-nc: Cysteineless avidin mutant C4A, C83Y; intramonomeric disulphide bridges removed”, the figures for the ΔTm in data set [1] (setting [7]) and in data set [3] were 0.3 °C and 42.1 °C, respectively. For the same substance, the Tm was 118.5 ± 0.1 °C in data set [1] (setting [8]) and 76.4 ± 0.4 °C in data set [1] (without biotin). Further, the Kd in data set [2] was 190 nM; in data set [4], 25 nM. In addition, the “DSC Tm (+biotin)” value in data set [3] was 118.5 ± 0.1 °C. Moreover, the “DSC Tm(−biotin)” value in data set [3] is 76.4 ± 0.4 °C.

As to “Streptavidin: Bacterial streptavidin (SEQ ID NO 2), literature values [reference compound]”, in data set [3], the ΔTm is 36.7 °C, the “DSC Tm (+biotin)” value was 112.2 °C and the “DSC Tm(−biotin)” value is 75.5 °C. Moreover, the ΔH of unfolding in data set [3] (previously published (Gonzalez 1999)) was 150.3 kcal/mol.

The values are drawn from patent publication US20060281899A1, “Mutants of biotin binding protein” (priority 2002, published 2006).
